In patent US20220323445A1, “REDUCING IMMUNOGENICITY TO PEGLOTICASE” (Horizon Therapeutics Ireland DAC, priority 2020, published 2022):
Values joined by “and” are separate entries in the source; they are usually repeats but may differ in a detail not shown here. Equal entries are not always repeated.

Key:
[1] = test system: patients with uncontrolled gout; assay: Health Assessment Questionnaire (HAQ-DI, HAQ pain, HAQ health), open-label study; format: in vivo, human; parameters: key to HAQ-Health, Observed, Median / HAQ-Health, Change from Baseline, Median: 0-100 scale; 0 = very well, 100 = very poor health; key to HAQ-DI, Observed, Median / HAQ-DI, Change from Baseline, Median: HAQ-DI scale 0-3; 0 = no difficulty, 3 = unable to do; conditions: mITT
Method: Quality-of-Life Assessment: The HAQ was administered at the Screening and Week −4 or week −6 (prior to the first dose of MTX) Visits during the MTX Run-in Period for the open-label and randomized studies, respectively; prior to pegloticase infusion at the Day 1 and Weeks 14, 24 and 36 Visits or at the Day 1 and weeks 6, 14, 20, 24, 30, 36, and 44 visits during the Pegloticase+IMM Period for the open-label and randomized studies, respectively; at the End of Pegloticase Infusions Visit (if applicable), the Week 52/End of Study/Early Termination Visit and the Post Treatment Periods 3 and 6 Month Follow-up Visits (open-label study). The HAQ-DI is a self-report functional status instrument that can be filled out by a subject in less than 5 minutes and requires 1 minute to score. The index measures disability over the past week by asking a total of 20 questions covering 8 domains of function: dressing and grooming, arising, eating, walking, hygiene, reach, grip, and usual activities. There are at least 2 questions in each domain and the 8 domains represent a comprehensive set of functional activities. The HAQ-DI is calculated by scoring the answer to each question in the HAQ from 0 to 3, with 0 representing the ability to do without any difficulty, and 3 representing inability to do. Any activity that requires assistance from another individual or requires the use of an assistive device raises a 0 or 1 score to a 2. The highest score for each of the 8 domains is summed (range from 0 to 24) and divided by 8 to yield, on a scale with 25 possible values, a Functional Disability Index with a range from 0 to 3. The disability index is based on the number of domains answered and is computed only if the subject completes answers to at least 6 domains. The HAQ pain scale asks subjects to record how much pain they have had in the past week on a scale of 0 to 100, where zero represents “no pain” and 100 represents “severe pain”. The HAQ health scale is a measure of overall health. Subjects are asked to rate how well they are doing on a score of 0 to 100, where zero represents “very well” and 100 represents “very poor” health.

serum uric acid (sUA) = conditions: cited from earlier work
[2] = Day 1 vs Methotrexate Baseline, n=13
[3] = Early Termination Visit vs Methotrexate Baseline, n=3
[4] = Early Termination Visit vs Pegloticase Baseline, n=3
[5] = End of Pegloticase Infusions Visit vs Methotrexate Baseline, n=2
[6] = End of Pegloticase Infusions Visit vs Pegloticase Baseline, n=2
[7] = End of Pegloticase Infusions Visit, n=2
[8] = Week 14 vs Methotrexate Baseline, n=14
[9] = Week 14 vs Pegloticase Baseline, n=14
[10] = Week 24 vs Methotrexate Baseline, n=11
[11] = Week 24 vs Pegloticase Baseline, n=11
[12] = Week 36 vs Methotrexate Baseline, n=9
[13] = Week 36 vs Pegloticase Baseline, n=9
[14] = Week 52/ET vs Methotrexate Baseline, n=3
[15] = Week 52/ET vs Pegloticase Baseline, n=3

B1: pegloticase (protein)
chain: TYKKNDEVEFVRTGYGKDMIKVLHIQRDGKYHSIKEVATTVQLTLSSKKDYLHGDNSDVIPTDTIKNTVNVLAKFKGIKSIETFAVTICEHFLSSFKHVIRAQVYVEEVPWKRFEKNGVKHVHAFIYTPTGTHFCEVEQIRNGPPVIHSGIKDLKVLKTTQSGFEGFIKDQFTTLPEVKDRCFATQVYCKWRYHQGRDVDFEATWDTVRSIVLQKFAGPYDKGEYSPSVQKTLYDIQVLTLGQVPEIEDMEISLPNIHYLNIDMSKMGLINKEEVLLPLDNPYGKITGTVKRKLSSRL
modifications: monomethoxy PEG conjugated; Krystexxa Sequence
notes: covalent conjugate of uricase produced by a genetically modified strain of Escherichia coli and monomethoxypoly (ethylene glycol)
- HAQ-DI, Observed, Mean (SD) ([1]; Day 1, n=13): 0.8 (0.77)
- HAQ-DI, Observed, Median ([1]; Day 1, n=13): 0.5
- HAQ-Health, Observed, Mean (SD) ([1]; Day 1, n=13): 37.8 (27.06)
- HAQ-Health, Observed, Median ([1]; Day 1, n=13): 25.0
- HAQ-Pain, Observed, Mean (SD) ([1]; Day 1, n=13): 42.5 (22.24)
- HAQ-Pain, Observed, Median ([1]; Day 1, n=13): 40.0
- HAQ-DI, Change from Baseline, Mean (SD) [1, 2]: 0.1 (0.27)
- HAQ-DI, Change from Baseline, Median [1, 2]: 0.0
- HAQ-Health, Change from Baseline, Mean (SD) [1, 2]: −8.8 (38.29)
- HAQ-Health, Change from Baseline, Median [1, 2]: 10.0
- HAQ-Pain, Change from Baseline, Mean (SD) [1, 2]: 2.3 (19.93)
- HAQ-Pain, Change from Baseline, Median [1, 2]: 0.0
- HAQ-DI, Change from Baseline, Mean (SD) [1, 3]: 0.2 (0.90)
- HAQ-DI, Change from Baseline, Median [1, 3]: −0.3
- HAQ-Health, Change from Baseline, Mean (SD) [1, 3]: −0.7 (16.77)
- HAQ-Health, Change from Baseline, Median [1, 3]: 8.0
- HAQ-Pain, Change from Baseline, Mean (SD) [1, 3]: 19.0 (36.51)
- HAQ-Pain, Change from Baseline, Median [1, 3]: 7.0
- HAQ-DI, Change from Baseline, Mean (SD) [1, 4]: 0.2 (0.56)
- HAQ-DI, Change from Baseline, Median [1, 4]: 0.1
- HAQ-Health, Change from Baseline, Mean (SD) [1, 4]: −11.7 (62.52)
- HAQ-Health, Change from Baseline, Median [1, 4]: −10.0
- HAQ-Pain, Change from Baseline, Mean (SD) [1, 4]: 0.0 (45.83)
- HAQ-Pain, Change from Baseline, Median [1, 4]: −10.0
- HAQ-DI, Observed, Mean (SD) ([1]; Early Termination Visit, n=3): 0.7 (0.51)
- HAQ-DI, Observed, Median ([1]; Early Termination Visit, n=3): 0.6
- HAQ-Health, Observed, Mean (SD) ([1]; Early Termination Visit, n=3): 28.3 (40.72)
- HAQ-Health, Observed, Median ([1]; Early Termination Visit, n=3): 10.0
- HAQ-Pain, Observed, Mean (SD) ([1]; Early Termination Visit, n=3): 46.7 (40.41)
- HAQ-Pain, Observed, Median ([1]; Early Termination Visit, n=3): 40.0
- HAQ-DI, Change from Baseline, Mean (SD) [1, 5]: −0.1 (0.35)
- HAQ-DI, Change from Baseline, Median [1, 5]: −0.1
- HAQ-Health, Change from Baseline, Mean (SD) [1, 5]: −80.0 (0.00)
- HAQ-Health, Change from Baseline, Median [1, 5]: −80.0
- HAQ-Pain, Change from Baseline, Mean (SD) [1, 5]: 2.5 (74.25)
- HAQ-Pain, Change from Baseline, Median [1, 5]: 2.5
- HAQ-DI, Change from Baseline, Mean (SD) [1, 6]: −0.1 (0.35)
- HAQ-DI, Change from Baseline, Median [1, 6]: −0.1
- HAQ-Health, Change from Baseline, Mean (SD) [1, 6]: −45.0 (49.50)
- HAQ-Health, Change from Baseline, Median [1, 6]: −45.0
- HAQ-Pain, Change from Baseline, Mean (SD) [1, 6]: 2.5 (74.25)
- HAQ-Pain, Change from Baseline, Median [1, 6]: 2.5
- HAQ-DI, Observed, Mean (SD) [1, 7]: 0.1 (0.18)
- HAQ-DI, Observed, Median [1, 7]: 0.1
- HAQ-Health, Observed, Mean (SD) [1, 7]: 0.0 (0.00)
- HAQ-Health, Observed, Median [1, 7]: 0.0
- HAQ-Pain, Observed, Mean (SD) [1, 7]: 40.0 (56.57)
- HAQ-Pain, Observed, Median [1, 7]: 40.0
- HAQ-DI, Observed, Mean (SD) ([1]; Week 14, n=14): 0.5 (0.41)
- HAQ-DI, Observed, Median ([1]; Week 14, n=14): 0.5
- HAQ-Health, Observed, Mean (SD) ([1]; Week 14, n=14): 36.6 (33.87)
- HAQ-Health, Observed, Median ([1]; Week 14, n=14): 16.5
- HAQ-Pain, Observed, Mean (SD) ([1]; Week 14, n=14): 27.1 (26.25)
- HAQ-Pain, Observed, Median ([1]; Week 14, n=14): 15.0
- HAQ-DI, Change from Baseline, Mean (SD) [1, 8]: −0.2 (0.77)
- HAQ-DI, Change from Baseline, Median [1, 8]: 0.0
- HAQ-Health, Change from Baseline, Mean (SD) [1, 8]: −12.5 (36.79)
- HAQ-Health, Change from Baseline, Median [1, 8]: −5.0
- HAQ-Pain, Change from Baseline, Mean (SD) [1, 8]: −13.9 (30.48)
- HAQ-Pain, Change from Baseline, Median [1, 8]: −12.5
- HAQ-DI, Change from Baseline, Mean (SD) [1, 9]: −0.3 (0.80)
- HAQ-DI, Change from Baseline, Median [1, 9]: 0.0
- HAQ-Health, Change from Baseline, Mean (SD) [1, 9]: −4.3 (43.82)
- HAQ-Health, Change from Baseline, Median [1, 9]: −1.0
- HAQ-Pain, Change from Baseline, Mean (SD) [1, 9]: −16.0 (30.65)
- HAQ-Pain, Change from Baseline, Median [1, 9]: −12.5
- HAQ-DI, Observed, Mean (SD) ([1]; Week 24, n=11): 0.2 (0.33)
- HAQ-DI, Observed, Median ([1]; Week 24, n=11): 0.1
- HAQ-Health, Observed, Mean (SD) ([1]; Week 24, n=11): 21.4 (26.65)
- HAQ-Health, Observed, Median ([1]; Week 24, n=11): 10.0
- HAQ-Pain, Observed, Mean (SD) ([1]; Week 24, n=11): 25.4 (27.50)
- HAQ-Pain, Observed, Median ([1]; Week 24, n=11): 20.0
- HAQ-DI, Change from Baseline, Mean (SD) [1, 10]: −0.5 (0.74)
- HAQ-DI, Change from Baseline, Median [1, 10]: −0.1
- HAQ-Health, Change from Baseline, Mean (SD) [1, 10]: −33.2 (36.01)
- HAQ-Health, Change from Baseline, Median [1, 10]: −40.0
- HAQ-Pain, Change from Baseline, Mean (SD) [1, 10]: −19.2 (35.13)
- HAQ-Pain, Change from Baseline, Median [1, 10]: −10.0
- HAQ-DI, Change from Baseline, Mean (SD) [1, 11]: −0.6 (0.85)
- HAQ-DI, Change from Baseline, Median [1, 11]: −0.1
- HAQ-Health, Change from Baseline, Mean (SD) [1, 11]: −19.7 (43.38)
- HAQ-Health, Change from Baseline, Median [1, 11]: −10.0
- HAQ-Pain, Change from Baseline, Mean (SD) [1, 11]: −16.7 (38.53)
- HAQ-Pain, Change from Baseline, Median [1, 11]: −10.0
- HAQ-DI, Observed, Mean (SD) ([1]; Week 36, n=9): 0.3 (0.49)
- HAQ-DI, Observed, Median ([1]; Week 36, n=9): 0.1
- HAQ-Health, Observed, Mean (SD) ([1]; Week 36, n=9): 27.3 (35.18)
- HAQ-Health, Observed, Median ([1]; Week 36, n=9): 10.0
- HAQ-Pain, Observed, Mean (SD) ([1]; Week 36, n=9): 21.0 (27.60)
- HAQ-Pain, Observed, Median ([1]; Week 36, n=9): 10.0
- HAQ-DI, Change from Baseline, Mean (SD) [1, 12]: −0.5 (0.80)
- HAQ-DI, Change from Baseline, Median [1, 12]: 0.0
- HAQ-Health, Change from Baseline, Mean (SD) [1, 12]: −27.7 (42.59)
- HAQ-Health, Change from Baseline, Median [1, 12]: −10.0
- HAQ-Pain, Change from Baseline, Mean (SD) [1, 12]: −22.9 (28.41)
- HAQ-Pain, Change from Baseline, Median [1, 12]: −20.0
- HAQ-DI, Change from Baseline, Mean (SD) [1, 13]: −0.5 (0.86)
- HAQ-DI, Change from Baseline, Median [1, 13]: −0.1
- HAQ-Health, Change from Baseline, Mean (SD) [1, 13]: −16.2 (50.72)
- HAQ-Health, Change from Baseline, Median [1, 13]: −10.0
- HAQ-Pain, Change from Baseline, Mean (SD) [1, 13]: −19.9 (20.25)
- HAQ-Pain, Change from Baseline, Median [1, 13]: −20.0
- HAQ-DI, Change from Baseline, Mean (SD) [1, 14]: −0.6 (0.87)
- HAQ-DI, Change from Baseline, Median [1, 14]: −0.1
- HAQ-Health, Change from Baseline, Mean (SD) [1, 14]: −16.7 (59.23)
- HAQ-Health, Change from Baseline, Median [1, 14]: 15.0
- HAQ-Pain, Change from Baseline, Mean (SD) [1, 14]: −42.7 (18.04)
- HAQ-Pain, Change from Baseline, Median [1, 14]: −44.0
- HAQ-DI, Change from Baseline, Mean (SD) [1, 15]: −0.8 (1.08)
- HAQ-DI, Change from Baseline, Median [1, 15]: −0.1
- HAQ-Health, Change from Baseline, Mean (SD) [1, 15]: 23.3 (54.85)
- HAQ-Health, Change from Baseline, Median [1, 15]: 5.0
- HAQ-Pain, Change from Baseline, Mean (SD) [1, 15]: −41.0 (25.24)
- HAQ-Pain, Change from Baseline, Median [1, 15]: −29.0
- HAQ-DI, Observed, Mean (SD) ([1]; Week 52/ET, n=3): 0.4 (0.29)
- HAQ-DI, Observed, Median ([1]; Week 52/ET, n=3): 0.3
- HAQ-Health, Observed, Mean (SD) ([1]; Week 52/ET, n=3): 60.0 (48.22)
- HAQ-Health, Observed, Median ([1]; Week 52/ET, n=3): 80.0
- HAQ-Pain, Observed, Mean (SD) ([1]; Week 52/ET, n=3): 4.0 (5.20)
- HAQ-Pain, Observed, Median ([1]; Week 52/ET, n=3): 1.0
- response rate (proportion of responders) during Month 6 in phase 3 studies (serum uric acid (sUA); pegloticase 8 mg every 2 weeks, without MTX): 43% and 43.5%
- proportion of patients maintaining therapeutic response at 6 months, previously reported (serum uric acid (sUA); pegloticase alone): 42%
